This is an account of results in patent US20220010003A1 (Boehringer Ingelheim, published 2022).

Test [1] deals with T1, recombinant mouse periostin (mouse, UniProt Q62009-2 24-811, limits assumed).
T1 construct: also called MoPOSTN
T1 sequence (looked up): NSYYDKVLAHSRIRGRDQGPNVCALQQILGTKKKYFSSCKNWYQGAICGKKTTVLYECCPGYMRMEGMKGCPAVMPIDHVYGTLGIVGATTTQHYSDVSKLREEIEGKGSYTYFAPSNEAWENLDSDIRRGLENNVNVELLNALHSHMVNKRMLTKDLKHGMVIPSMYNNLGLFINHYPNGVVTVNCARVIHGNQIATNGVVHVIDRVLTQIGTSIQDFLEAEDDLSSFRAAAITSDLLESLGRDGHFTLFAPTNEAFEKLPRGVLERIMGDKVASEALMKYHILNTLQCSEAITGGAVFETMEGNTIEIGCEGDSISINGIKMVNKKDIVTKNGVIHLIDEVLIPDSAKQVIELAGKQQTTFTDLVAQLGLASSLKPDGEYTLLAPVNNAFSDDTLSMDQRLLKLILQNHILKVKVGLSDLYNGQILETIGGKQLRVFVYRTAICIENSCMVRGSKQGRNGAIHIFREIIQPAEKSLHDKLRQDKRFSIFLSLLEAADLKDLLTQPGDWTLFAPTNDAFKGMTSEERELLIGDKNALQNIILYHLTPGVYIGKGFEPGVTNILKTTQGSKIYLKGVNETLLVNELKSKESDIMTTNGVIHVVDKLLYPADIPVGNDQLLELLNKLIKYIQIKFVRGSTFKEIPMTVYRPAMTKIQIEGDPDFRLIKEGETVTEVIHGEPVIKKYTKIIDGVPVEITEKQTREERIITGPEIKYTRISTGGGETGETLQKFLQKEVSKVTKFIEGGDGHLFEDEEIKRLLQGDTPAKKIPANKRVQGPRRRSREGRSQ
In words: ELISA, periostin coated, anti-human Fc-HRP; the clone is named in Table 2.

Test [2] has as its target T2, recombinant human periostin (human, UniProt Q15063 22-836).
T2 construct: also called HuPOSTN; POSTN
T2 sequence: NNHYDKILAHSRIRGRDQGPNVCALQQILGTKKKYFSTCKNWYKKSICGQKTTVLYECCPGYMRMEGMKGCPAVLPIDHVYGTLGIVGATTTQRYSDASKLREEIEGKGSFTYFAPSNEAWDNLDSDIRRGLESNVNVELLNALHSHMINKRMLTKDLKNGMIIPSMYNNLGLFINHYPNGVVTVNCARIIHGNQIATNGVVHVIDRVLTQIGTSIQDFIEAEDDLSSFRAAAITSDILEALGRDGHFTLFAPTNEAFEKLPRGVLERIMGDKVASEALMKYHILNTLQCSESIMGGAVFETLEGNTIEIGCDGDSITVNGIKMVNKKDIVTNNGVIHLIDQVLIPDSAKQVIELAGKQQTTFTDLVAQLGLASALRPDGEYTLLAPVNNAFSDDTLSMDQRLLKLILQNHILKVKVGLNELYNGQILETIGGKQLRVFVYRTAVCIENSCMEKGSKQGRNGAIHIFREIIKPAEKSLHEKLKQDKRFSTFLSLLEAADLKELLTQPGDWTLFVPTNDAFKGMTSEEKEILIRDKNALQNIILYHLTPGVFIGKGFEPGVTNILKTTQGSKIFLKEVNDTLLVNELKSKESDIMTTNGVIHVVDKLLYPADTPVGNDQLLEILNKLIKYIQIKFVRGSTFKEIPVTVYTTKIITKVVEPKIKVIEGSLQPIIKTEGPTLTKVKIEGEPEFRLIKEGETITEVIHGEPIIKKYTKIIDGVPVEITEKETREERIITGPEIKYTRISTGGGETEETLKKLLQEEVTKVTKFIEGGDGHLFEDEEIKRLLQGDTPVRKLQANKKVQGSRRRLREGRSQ
The test is described as above.

Test [3] deals with T2, recombinant human periostin. In words: cell-based or functional assay.
Test [4] deals with T1, recombinant mouse periostin. In words: binding ELISA, periostin coated.
The target of test [5] is T2, recombinant human periostin. In words: binding ELISA, periostin coated.
Test [6] addresses T1, recombinant mouse periostin. In words: cell-based or functional assay.
Test [7] deals with T2, recombinant human periostin. In words: cell-based or functional assay. The source holds these as a separate data set.

B1: NB0627 (antibody, human IgG1, V domains shown)
VH: QVQLVQSGAEVKKPGASVKVSCKASGYTFTSYGISWVRQAPGQGLEWMGWISAYNGNTNYAQKLQGRVTMTTDTSTSTAYMELRSLRSDDTAVYYCARDMLVVPFDYWGQGTLVTVSS
VL: QSVLTQSSSASGTPGQTVTVSCSGSSSDIGSNRVNWYQQLPGTAPKLLIYSNDQRPSGVPDRFSGSKSGTSASLAISGLQSADEADYYCAAWDDSLSTYVFGSGTKVTVL
As to B1, the EC50 in test [1] and in test [2] was under 1 nM throughout. Also, the “IC50 (nM), cell attachment assay” value in test [3] was determined as 22.4 nM.

B2: NB1011 (N55T) (antibody, V domains shown)
VH: QVQLVQSGAEVKKPGASVKVSCKASGYTFTSYGISWVRQAPGQGLEWMGWISAYTGNTNYAQKLQGRVTMTTDTSTSTAYMELRSLRSDDTAVYYCARDMLVVPFDYWGQGTLVTVSS
VL: QSVLTQSSSASGTPGQTVTVSCSGSSSDIGSNRVNWYQQLPGTAPKLLIYSNDQRPSGVPDRFSGSKSGTSASLAISGLQSADEADYYCAAWDDSLSTYVFGSGTKVTVL
notes: Variant of NB0828 (IgG4PAA parent); the isotype of the variant is not restated
Consider B2, for which the EC50 in test [4] and in test [5] was 0.07 nM in each case. Besides, the “CAA IC50” value in test [6] worked out at 22.3 nM; in test [7] it was 15 nM.

B3: NB1012 (N55S_M100I) (antibody, V domains shown)
VH: QVQLVQSGAEVKKPGASVKVSCKASGYTFTSYGISWVRQAPGQGLEWMGWISAYSGNTNYAQKLQGRVTMTTDTSTSTAYMELRSLRSDDTAVYYCARDILVVPFDYWGQGTLVTVSS
VL: QSVLTQSSSASGTPGQTVTVSCSGSSSDIGSNRVNWYQQLPGTAPKLLIYSNDQRPSGVPDRFSGSKSGTSASLAISGLQSADEADYYCAAWDDSLSTYVFGSGTKVTVL
notes: Double mutant of NB0828 (IgG4PAA parent); the isotype of the variant is not restated
On to B3, for which the figures for the EC50 in test [4] and in test [5] were 4.42 nM and 2.28 nM, respectively. Also, the “CAA IC50” value in test [6] is 42.3 nM.

B4: NB1003 (N55S) (antibody, V domains shown)
VH: QVQLVQSGAEVKKPGASVKVSCKASGYTFTSYGISWVRQAPGQGLEWMGWISAYSGNTNYAQKLQGRVTMTTDTSTSTAYMELRSLRSDDTAVYYCARDMLVVPFDYWGQGTLVTVSS
VL: QSVLTQSSSASGTPGQTVTVSCSGSSSDIGSNRVNWYQQLPGTAPKLLIYSNDQRPSGVPDRFSGSKSGTSASLAISGLQSADEADYYCAAWDDSLSTYVFGSGTKVTVL
notes: as for B2
As to B4, the EC50 in test [4] and in test [5] was 0.08 nM throughout. In addition, the “CAA IC50” value stood at 14.9 nM in test [6] and 10.8 nM in test [7].

B5: NB1014 (N55T_M100V) (antibody, V domains shown)
VH: QVQLVQSGAEVKKPGASVKVSCKASGYTFTSYGISWVRQAPGQGLEWMGWISAYTGNTNYAQKLQGRVTMTTDTSTSTAYMELRSLRSDDTAVYYCARDVLVVPFDYWGQGTLVTVSS
VL: QSVLTQSSSASGTPGQTVTVSCSGSSSDIGSNRVNWYQQLPGTAPKLLIYSNDQRPSGVPDRFSGSKSGTSASLAISGLQSADEADYYCAAWDDSLSTYVFGSGTKVTVL
notes: as for B3
B5: the EC50 in test [4] came out at 19.3 nM; in test [5] it was 9.47 nM. In addition, the “CAA IC50” value in test [6] was 65.1 nM.

B6: NB1010 (N55Q) (antibody, V domains shown)
VH: QVQLVQSGAEVKKPGASVKVSCKASGYTFTSYGISWVRQAPGQGLEWMGWISAYQGNTNYAQKLQGRVTMTTDTSTSTAYMELRSLRSDDTAVYYCARDMLVVPFDYWGQGTLVTVSS
VL: QSVLTQSSSASGTPGQTVTVSCSGSSSDIGSNRVNWYQQLPGTAPKLLIYSNDQRPSGVPDRFSGSKSGTSASLAISGLQSADEADYYCAAWDDSLSTYVFGSGTKVTVL
notes: as for B2
Turning to B6, the results for the EC50 in test [4] and in test [5] were 0.1 nM and 0.08 nM, respectively. Also, the “CAA IC50” value in test [6] worked out at 19.6 nM; in test [7], 7.97 nM.

B7: NB1015 (N55D) (antibody, V domains shown)
VH: QVQLVQSGAEVKKPGASVKVSCKASGYTFTSYGISWVRQAPGQGLEWMGWISAYDGNTNYAQKLQGRVTMTTDTSTSTAYMELRSLRSDDTAVYYCARDMLVVPFDYWGQGTLVTVSS
VL: QSVLTQSSSASGTPGQTVTVSCSGSSSDIGSNRVNWYQQLPGTAPKLLIYSNDQRPSGVPDRFSGSKSGTSASLAISGLQSADEADYYCAAWDDSLSTYVFGSGTKVTVL
notes: as for B2
As to B7, the EC50 in test [4] came to 0.18 nM; in test [5], 0.12 nM. Further, the “CAA IC50” value in test [6] came out at 20.9 nM; in test [7], 13.6 nM.
